# US20070232789A1 (UNIVERSITY OF MARYLAND BALTIMORE, published 2007)
# Numbering of substitutions follows the chain as printed.
# T1: A1/A3-C1-C2 heterodimer of factor VIII, plasma-derived (human, UniProt P00451 20-391; P00451 1709-2351)
# T1 sequence 1: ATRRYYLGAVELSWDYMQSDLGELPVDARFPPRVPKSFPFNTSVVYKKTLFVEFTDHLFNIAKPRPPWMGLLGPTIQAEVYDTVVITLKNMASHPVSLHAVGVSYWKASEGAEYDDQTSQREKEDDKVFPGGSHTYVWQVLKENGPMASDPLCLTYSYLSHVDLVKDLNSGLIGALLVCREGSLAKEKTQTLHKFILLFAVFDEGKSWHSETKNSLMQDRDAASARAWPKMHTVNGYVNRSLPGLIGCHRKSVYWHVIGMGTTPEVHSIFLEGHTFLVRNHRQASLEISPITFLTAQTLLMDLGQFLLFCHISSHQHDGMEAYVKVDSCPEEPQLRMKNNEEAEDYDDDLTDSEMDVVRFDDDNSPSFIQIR
# T1 sequence 2: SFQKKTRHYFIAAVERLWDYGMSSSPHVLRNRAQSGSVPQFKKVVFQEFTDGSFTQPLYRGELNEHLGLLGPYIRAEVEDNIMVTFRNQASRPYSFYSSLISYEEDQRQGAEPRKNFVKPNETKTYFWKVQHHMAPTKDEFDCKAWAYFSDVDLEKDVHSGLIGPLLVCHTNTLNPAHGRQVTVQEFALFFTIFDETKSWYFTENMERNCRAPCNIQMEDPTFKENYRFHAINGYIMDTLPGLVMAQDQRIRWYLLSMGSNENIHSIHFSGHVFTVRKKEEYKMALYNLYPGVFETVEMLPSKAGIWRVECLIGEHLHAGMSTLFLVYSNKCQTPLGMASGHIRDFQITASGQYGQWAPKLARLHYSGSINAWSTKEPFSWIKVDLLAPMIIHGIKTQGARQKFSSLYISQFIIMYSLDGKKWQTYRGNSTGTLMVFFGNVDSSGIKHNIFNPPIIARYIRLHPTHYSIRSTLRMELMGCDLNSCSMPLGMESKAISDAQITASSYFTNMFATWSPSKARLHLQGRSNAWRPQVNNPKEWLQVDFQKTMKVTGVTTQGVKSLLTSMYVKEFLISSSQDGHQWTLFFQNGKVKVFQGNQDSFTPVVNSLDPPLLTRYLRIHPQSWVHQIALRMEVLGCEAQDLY
# B1: recombinant A2 mutant #10 (Arg-489 to Ala) (other)
# chain: SGAKKHPKTWVHYIAAEEEDWDYAPLVLAPDDRSYKSQYLNNGPQRIGRKYKKVRFMAYTDETFKTREAIQHESGILGPLLYGEVGDTLLIIFKNQASRPYNIYPHGITDVRPLYSARLPKGVKHLKDFPILPGEIFKYKWTVTVEDGPTKSDPRCLTRYYSSFVNMERDLASGLIGPLLICYKESVDQRGNQIMSDKRNVILFSVFDENRSWYLTENIQRFLPNPAGVQLEDPEFQASNIMHSINGYVFDSLQLSVCLHEVAYWYILSIGAQTDFLSVFFSGYTFKHKMVYEDTLTLFPFSGETVFMSMENPGLWILGCHNSDFRNRGMTALLKVSSCDKNTGDYYEDSYEDISAYLLSKNNAIEPR
# notes: hx-A2 form from Sf9 cells
# B2: recombinant A2 mutant #8 (Tyr-487 to Ala) (other)
# chain: B1 chain with Y115A, A117R
# notes: hx-A2 form from Sf9 cells
# B3: recombinant wild-type A2 domain of human factor VIII (hx-A2) (other)
# chain: B1 chain with A117R
# notes: Secreted from Sf9 cells as hx-A2 and purified on mAb 8860; Removal of the tag is not reported; also called wt-A2; recombinant A2; not shown: N-terminal hx leader (6xHis tag, vector-derived linker, factor Xa site)
# B4: recombinant A2 mutant #1 (Lys-376 to Ala) (other)
# chain: B1 chain with K4A, A117R
# notes: hx-A2 form from Sf9 cells; not shown: N-terminal hx leader (6xHis tag, vector-derived linker, factor Xa site)
# B5: recombinant A2 mutant #15 (His-497 to Ala) (other)
# chain: B1 chain with A117R, H125A
# notes: hx-A2 form from Sf9 cells
# B6: recombinant A2 mutant #11 (Arg-490 to Ala) (other)
# chain: B1 chain with A117R, R118A
# notes: hx-A2 form from Sf9 cells
# B7: recombinant A2 mutant #13 (Lys-493 to Ala) (other)
# chain: B1 chain with A117R, K121A
# notes: hx-A2 form from Sf9 cells
# B8: recombinant A2 mutant #18 (Lys-512 to Ala) (other)
# chain: B1 chain with A117R, K140A
# notes: as for B4
# B9: recombinant A2 mutant #20 (Lys-556 to Ala) (other)
# chain: B1 chain with A117R, K184A
# notes: as for B4
# B10: recombinant A2 mutant #9 (Ser-488 to Ala) (other)
# chain: B1 chain with S116A, A117R
# notes: hx-A2 form from Sf9 cells
# B11: recombinant A2 mutant #19 (Lys-523 to Ala) (other)
# chain: B1 chain with A117R, K151A
# notes: as for B4
# B12: recombinant A2 mutant #12 (Leu-491 to Ala) (other)
# chain: B1 chain with A117R, L119A
# notes: hx-A2 form from Sf9 cells
# B13: recombinant A2 mutant #14 (Lys-496 to Ala) (other)
# chain: B1 chain with A117R, K124A
# notes: hx-A2 form from Sf9 cells
# B14: recombinant A2 mutant #16 (His-499 to Ala as printed in Tables 1 and 2; Lys^499 in the text) (other)
# chain: B1 chain with A117R, K127A
# notes: hx-A2 form from Sf9 cells; also called Lys^499 Ala mutant; not shown: N-terminal hx leader (6xHis tag, vector-derived linker, factor Xa site)
# B15: recombinant A2 mutant #17 (Lys-510 to Ala) (other)
# chain: B1 chain with A117R, K138A
# notes: as for B4
# B16: 39 kDa receptor-associated protein (RAP), human, expressed in bacteria (other)
# chain: YSREKNQPKPSPKRESGEEFRMEKLNQLWEKAQRLHLPPVRLAELHADLKIQERDELAWKKLKLDGLDEDGEKEARLIRNLNVILAKYGLDGKKDARQVTSNSLSGTQEDGLDDPRLEKLWHKAKTSGKFSGEELDKLWREFLHHKEKVHEYNVLLETLSRTEEIHENVISPSDLSDIKGSVLHSRHTELKEKLRSINQGLDRLRRVSHQGYSTEAEFEEPRVIDLWDLAQSANLTDKELEAFREELKHFEAKIEKHNHYQKQLEIAHEKLRHAESVGDGERVSRSREKHALLEGRTKELGYTVKKHLQDLSGRISRARHNEL
# notes: also called α2 macroglobulin receptor-associated protein
# B17: synthetic A2 domain peptide 484-509 (peptide)
# peptide: RPLYSRRLPKGVKHLKDFPILPGEIF
# Target: T2, low-density lipoprotein receptor-related protein (LRP), purified (human, UniProt Q07954 20-4544)
# T2 construct: mature; also called low density lipoprotein receptor-related protein/α2-macroglobulin receptor; LRP receptor
# T2 sequence (Q07954 20-4544, form in doubt): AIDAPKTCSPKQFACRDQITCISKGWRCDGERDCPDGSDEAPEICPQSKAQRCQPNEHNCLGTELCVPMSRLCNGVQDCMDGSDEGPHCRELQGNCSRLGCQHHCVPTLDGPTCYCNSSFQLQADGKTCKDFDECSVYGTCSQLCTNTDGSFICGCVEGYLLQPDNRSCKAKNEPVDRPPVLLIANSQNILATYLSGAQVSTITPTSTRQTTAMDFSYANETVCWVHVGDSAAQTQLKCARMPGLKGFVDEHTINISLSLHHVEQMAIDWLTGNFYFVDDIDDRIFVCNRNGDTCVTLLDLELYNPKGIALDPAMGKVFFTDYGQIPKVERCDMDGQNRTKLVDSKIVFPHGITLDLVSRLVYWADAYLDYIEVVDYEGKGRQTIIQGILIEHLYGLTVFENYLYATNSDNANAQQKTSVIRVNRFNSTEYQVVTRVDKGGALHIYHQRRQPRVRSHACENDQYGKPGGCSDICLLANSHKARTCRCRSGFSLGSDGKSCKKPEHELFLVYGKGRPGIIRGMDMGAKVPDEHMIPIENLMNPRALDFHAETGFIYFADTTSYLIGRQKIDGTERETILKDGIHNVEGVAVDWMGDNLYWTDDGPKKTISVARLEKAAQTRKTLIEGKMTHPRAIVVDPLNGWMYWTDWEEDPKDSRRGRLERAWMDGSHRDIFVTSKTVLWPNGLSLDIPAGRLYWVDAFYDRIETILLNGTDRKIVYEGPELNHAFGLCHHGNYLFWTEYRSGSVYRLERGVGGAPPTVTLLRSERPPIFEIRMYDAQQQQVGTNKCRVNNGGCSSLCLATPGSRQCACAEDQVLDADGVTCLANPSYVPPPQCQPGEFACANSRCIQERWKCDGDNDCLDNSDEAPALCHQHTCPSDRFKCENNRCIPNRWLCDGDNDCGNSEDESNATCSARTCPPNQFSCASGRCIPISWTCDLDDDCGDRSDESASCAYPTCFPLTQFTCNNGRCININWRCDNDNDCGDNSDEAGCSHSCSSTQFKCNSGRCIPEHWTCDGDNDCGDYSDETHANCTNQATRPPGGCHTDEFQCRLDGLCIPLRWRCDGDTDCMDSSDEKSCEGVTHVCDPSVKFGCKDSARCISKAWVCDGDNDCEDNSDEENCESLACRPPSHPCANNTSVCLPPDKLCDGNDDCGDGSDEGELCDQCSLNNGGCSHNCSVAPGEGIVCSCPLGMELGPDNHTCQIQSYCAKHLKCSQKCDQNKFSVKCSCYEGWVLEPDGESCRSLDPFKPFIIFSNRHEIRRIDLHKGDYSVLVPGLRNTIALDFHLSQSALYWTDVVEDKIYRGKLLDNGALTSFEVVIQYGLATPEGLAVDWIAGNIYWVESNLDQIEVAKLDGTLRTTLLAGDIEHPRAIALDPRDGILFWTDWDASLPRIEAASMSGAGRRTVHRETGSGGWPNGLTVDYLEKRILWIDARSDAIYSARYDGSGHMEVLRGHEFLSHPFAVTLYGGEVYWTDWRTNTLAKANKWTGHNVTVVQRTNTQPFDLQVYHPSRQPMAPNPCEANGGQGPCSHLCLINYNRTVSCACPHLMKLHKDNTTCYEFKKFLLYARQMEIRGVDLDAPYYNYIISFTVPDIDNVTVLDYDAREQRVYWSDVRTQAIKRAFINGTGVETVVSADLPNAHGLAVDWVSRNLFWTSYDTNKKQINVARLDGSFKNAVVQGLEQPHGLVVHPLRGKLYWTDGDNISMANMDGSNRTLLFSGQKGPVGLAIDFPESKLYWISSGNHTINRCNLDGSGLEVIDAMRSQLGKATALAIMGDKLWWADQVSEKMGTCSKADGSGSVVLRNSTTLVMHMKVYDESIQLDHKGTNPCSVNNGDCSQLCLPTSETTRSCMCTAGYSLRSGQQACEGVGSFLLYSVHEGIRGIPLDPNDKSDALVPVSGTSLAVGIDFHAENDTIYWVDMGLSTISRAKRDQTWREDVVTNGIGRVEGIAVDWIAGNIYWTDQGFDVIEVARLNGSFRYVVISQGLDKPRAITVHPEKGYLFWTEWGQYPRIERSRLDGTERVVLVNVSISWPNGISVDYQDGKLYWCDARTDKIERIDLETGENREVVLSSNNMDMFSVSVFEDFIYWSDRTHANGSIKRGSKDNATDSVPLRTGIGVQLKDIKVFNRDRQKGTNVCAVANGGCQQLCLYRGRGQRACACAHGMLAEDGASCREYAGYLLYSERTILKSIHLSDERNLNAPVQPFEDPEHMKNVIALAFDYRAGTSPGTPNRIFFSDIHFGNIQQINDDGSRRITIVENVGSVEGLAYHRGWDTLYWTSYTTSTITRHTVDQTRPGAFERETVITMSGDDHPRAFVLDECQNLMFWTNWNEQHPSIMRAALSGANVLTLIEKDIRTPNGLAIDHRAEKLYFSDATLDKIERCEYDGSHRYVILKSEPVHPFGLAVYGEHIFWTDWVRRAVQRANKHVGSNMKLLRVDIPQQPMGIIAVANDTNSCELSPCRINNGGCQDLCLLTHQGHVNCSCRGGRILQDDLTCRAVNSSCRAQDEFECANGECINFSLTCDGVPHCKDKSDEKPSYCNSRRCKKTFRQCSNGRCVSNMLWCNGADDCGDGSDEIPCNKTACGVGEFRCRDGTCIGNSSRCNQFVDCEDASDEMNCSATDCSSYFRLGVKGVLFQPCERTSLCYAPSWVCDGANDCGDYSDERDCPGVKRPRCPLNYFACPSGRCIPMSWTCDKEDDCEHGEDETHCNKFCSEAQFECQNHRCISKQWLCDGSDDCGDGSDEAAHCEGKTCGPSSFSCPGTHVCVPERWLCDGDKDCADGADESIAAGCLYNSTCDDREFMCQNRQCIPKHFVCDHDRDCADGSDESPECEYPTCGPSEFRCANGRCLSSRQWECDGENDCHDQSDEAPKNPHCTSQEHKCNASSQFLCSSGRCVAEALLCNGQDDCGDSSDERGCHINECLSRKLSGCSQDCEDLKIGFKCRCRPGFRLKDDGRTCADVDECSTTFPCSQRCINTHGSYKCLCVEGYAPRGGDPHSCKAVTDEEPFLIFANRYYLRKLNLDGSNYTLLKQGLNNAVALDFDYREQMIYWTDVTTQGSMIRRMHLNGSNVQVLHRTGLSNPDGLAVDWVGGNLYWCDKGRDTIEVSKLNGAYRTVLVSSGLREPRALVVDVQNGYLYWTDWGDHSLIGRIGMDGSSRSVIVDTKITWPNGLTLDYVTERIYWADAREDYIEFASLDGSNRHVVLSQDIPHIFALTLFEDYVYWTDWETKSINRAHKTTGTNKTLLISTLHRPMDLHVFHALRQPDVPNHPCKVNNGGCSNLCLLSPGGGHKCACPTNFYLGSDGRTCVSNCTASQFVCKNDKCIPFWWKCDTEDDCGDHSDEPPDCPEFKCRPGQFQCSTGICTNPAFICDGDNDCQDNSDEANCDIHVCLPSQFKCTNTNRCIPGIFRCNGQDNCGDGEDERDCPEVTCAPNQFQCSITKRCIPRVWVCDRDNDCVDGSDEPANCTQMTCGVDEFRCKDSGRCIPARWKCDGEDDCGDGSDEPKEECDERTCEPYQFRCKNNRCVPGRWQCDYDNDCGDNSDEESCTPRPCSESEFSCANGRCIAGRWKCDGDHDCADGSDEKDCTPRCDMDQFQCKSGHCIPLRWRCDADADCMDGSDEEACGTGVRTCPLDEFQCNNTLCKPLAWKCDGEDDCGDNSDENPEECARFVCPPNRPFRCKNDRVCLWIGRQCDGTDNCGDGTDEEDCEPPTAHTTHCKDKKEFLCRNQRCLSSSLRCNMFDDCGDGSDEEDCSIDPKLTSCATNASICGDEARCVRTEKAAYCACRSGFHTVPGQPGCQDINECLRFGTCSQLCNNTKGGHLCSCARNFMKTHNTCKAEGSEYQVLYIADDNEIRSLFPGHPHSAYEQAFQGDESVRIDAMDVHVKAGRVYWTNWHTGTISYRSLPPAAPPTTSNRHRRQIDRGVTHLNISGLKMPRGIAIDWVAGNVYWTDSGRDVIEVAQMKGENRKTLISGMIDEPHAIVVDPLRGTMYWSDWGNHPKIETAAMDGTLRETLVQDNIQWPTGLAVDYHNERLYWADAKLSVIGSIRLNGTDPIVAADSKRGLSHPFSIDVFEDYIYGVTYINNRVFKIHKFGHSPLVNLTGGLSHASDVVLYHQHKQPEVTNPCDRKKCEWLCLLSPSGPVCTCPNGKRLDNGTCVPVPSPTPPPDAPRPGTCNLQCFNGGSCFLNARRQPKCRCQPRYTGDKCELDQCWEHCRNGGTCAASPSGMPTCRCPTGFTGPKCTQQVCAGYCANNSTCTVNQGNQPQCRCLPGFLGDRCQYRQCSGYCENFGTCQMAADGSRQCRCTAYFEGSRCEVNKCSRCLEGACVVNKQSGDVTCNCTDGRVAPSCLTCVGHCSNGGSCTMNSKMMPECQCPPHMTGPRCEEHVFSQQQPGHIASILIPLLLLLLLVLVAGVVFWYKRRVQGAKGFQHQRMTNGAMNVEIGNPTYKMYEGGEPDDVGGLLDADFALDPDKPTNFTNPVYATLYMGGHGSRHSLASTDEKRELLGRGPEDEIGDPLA
# Assay: SPR, BIAcore 3000
# Description: (§1) Surface plasmon resonance-based binding assay. […] This system allows real-time biomolecular interaction analysis (BIA) using surface plasmon resonance (SPR) technology. One molecule (the ligand) is usually immobilized on the surface of the sensor chip; the second molecule (the analyte) in solution is passed over the chip under conditions of continuous flow, and the amount of the bound analyte is detected by the system. SPR is a non-invasive optical measuring technique which measures the mass concentration of biomolecules in close proximity to the sensor chip where association and dissociation of biomolecular complexes occurs. […] The association (kₒₙ) and dissociation (koff) rate constants were determined using BIAevaluation Version 3.1 software. The data were corrected for bulk refraction index changes and fitted to a one-site binding model by a non-linear regression analysis Equilibrium dissociation constants (KD) were calculated from the ratio koff/kₒₙ.
row,fold decrease of affinity against wt-A2 [fold],Binder
1,7,B1
2,5,B2

# Target: T1, A1/A3-C1-C2 heterodimer of factor VIII, …
# Assay: cell-based or functional assay
row,Activity of reconstituted FVIIIa (% of wt activity),Binder
1,100 % of wt activity,B3
2,73.9 % of wt activity,B4
3,242 % of wt activity,B5
4,151 % of wt activity,B6
5,267 % of wt activity,B7
6,130 % of wt activity,B1
7,219 % of wt activity,B8
8,196 % of wt activity,B9
9,232 % of wt activity,B10
10,390 % of wt activity,B11
11,518 % of wt activity,B12
12,263 % of wt activity,B13
13,128 % of wt activity,B14
14,91.5 % of wt activity,B15
15,87.9 % of wt activity,B2

# Target: T2, low-density lipoprotein …
# Assay: SPR, BIAcore 3000, one-site model, KD = koff/kon
# Description: as §1
row,Kd [nM],Binder
1,21,B3
2,25.5,B4
3,51,B5
4,59,B6
5,18,B7
6,150,B1
7,21,B8
8,33,B9
9,67,B10
10,41,B11
11,21,B12
12,9.5,B13
13,33,B14
14,29,B15
15,97,B2

# Target: T2, low-density lipoprotein …
# Assay: heterologous displacement of ^125I-fVIII (1 nM) from LRP-coated wells
# Procedure: (§2) FIGS. 15A-15B. […] Each point represents the mean value of triplicates and the error bars display the standard deviation. The curves show a best fit of the data to a model describing heterologous ligand displacement from a single class of binding sites using the program LIGAND.
# (§3) Solid-phase binding assays. […] Microtiter wells were coated with purified LRP or BSA (3 μg/ml) in 50 mM Tris, 0.15 M NaCl, pH 8.0, for 16 h and then blocked with 3% BSA in TBS. […] The radioactivity bound to the wells was counted using a γ-counter (Pharmacia). Affinity constants were derived from homologous and heterologous displacement data using the computer program LIGAND (Munson, P T and Rodbard, D. Anal. Biochem. 107:220-239 (1980)).
row,Ki [nM],Binder
1,2.5,B16

# Target: T2, low-density lipoprotein …
# Assay: competition: peptide 484-509 varied, competitor 125I-fVIII, LRP-coated microtiter wells
# Procedure: FIGS. 17A-17B. […] The mean and standard deviation of the triplicate measurements are presented.
# as §3
row,IC50 (read off the curve) [nM],Binder
1,~1000,B17

# Target: T2, low-density lipoprotein …
# Assay: heterologous ligand displacement: RAP varied, competitor 125I-fVIII (1 nM), LRP-coated microtiter wells
# Procedure: as §2, §3
row,IC50 (read off the curve) [nM],Binder
1,~2,B16
